Measured values taken from patent US20180118848A1 (Regeneron, published 2018).
Numbering of substitutions follows the chain as printed. Numbers in names are those of the source.

B1: H2M7135N (antibody, mouse IgG2, V domains shown)
VH: EVQLVESGGGLVQAGGSLRLSCAASGFTFSYHEMNWVRQAPGKGLEWVSYIGSRGTTKHYADPVKGRFTISRDNAKNSLYLQMNSLRAEDTAVYYCASEVGSILGYSMDVWGQGTTVTVSS
VL: DIQMTQSPSSLSASVGDRVTITCRASQSVSRYLNWCQQKPGKAPKLLTYAASSLQSGVPSRFSGSGSGTDFTLTISSLQPEDFAAYFCQQSYSTPPITFGQGTRLEIK
notes: Human variable regions, mouse IgG2 constant region
B2: H1H8770P (antibody, human IgG1, V domains shown)
VH: QVQLVESGGGVVQPGRSLRLSCAASGFTFSDHGMHWVRQAPGKGLEWVAVISYHGSNKHYADSVKGRFTISRDNSKNALYLQMNSLRPEDTAMYYCAKDGYDFWNGYSLFDYWGQGTLVTVSS
VL: B1 VL with V29I, R31N, C36Y, T48I, A50T, S53N, Q55L, A85T, F87Y, R104K
notes: Human IgG1
B3: H1H8783P (antibody, human IgG1, V domains shown)
VH: B2 VH with G33A, S56T, N57D, H59Q, A61G, G106A
VL: B1 VL with V29I, R31N, C36Y, T48I, A50T, Q55L, A85T, F87Y
notes: Human IgG1
B4: H2M7138N (antibody, mouse IgG2, V domains shown)
VH: QVQLVQSGAEVKKPGASVKVSCKASGYTFTSSDINWVRQATGQGLEWVGWMNPNYGYTGSARKFQDRVTMTRNTSLSTAYLELHSLRSEDTAVYYCARVTYCSSVTSCFRPFTYWGQGTLVTVSA
VL: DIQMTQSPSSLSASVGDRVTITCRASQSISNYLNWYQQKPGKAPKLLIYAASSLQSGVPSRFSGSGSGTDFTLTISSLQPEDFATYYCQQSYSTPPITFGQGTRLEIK
notes: Human variable regions, mouse IgG2 constant region; also called H2aM7138N
B5: H1H8790P (antibody, human IgG1, V domains shown)
VH: EVQLVESGGGLVQPGGSLRLSCEASGFTFSNYAMSWVRQAPGKGLEWVSGMSGSGTYPYYADSVKGRFTISRDNSKNMLYLQMNSLRVKDTAVYYCAKDGVDTAMILDTFDLWGQGTMVTVSS
VL: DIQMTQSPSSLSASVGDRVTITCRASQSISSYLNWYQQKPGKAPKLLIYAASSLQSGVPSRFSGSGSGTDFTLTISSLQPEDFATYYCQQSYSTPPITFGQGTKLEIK
notes: Human IgG1
B6: H1M7137N (antibody, mouse IgG1, V domains shown)
VH: QVQLQESGPGLVKPSETLSLTCTVSGGAINTYYWSWIRQPPGKGLEWIGYIYYRGNTNYNPSLRSRVTISVDTSKNQFFLKLRSVTVADSAVYFCARGWNYRAEYFQHWGQGTVVTVSS
VL: not shown
notes: Human variable regions, mouse IgG1 constant region
B7: H1H8755P (antibody, human IgG1, V domains shown)
VH: EVQLVESGGGLVQPGRSLRLSCAASGFTFNDYAMHWVRQSPGKGLEWVSGIDWNGGSIDYADSVKGRFTISRDTAKNSLYLQMNSLKVEDTALYYCAKDIGHWNYIGGMDVWGQGTTVTVSS
VL: DIQMTQSPSSLSASVGDRVTITCRASQSINIYLNWYQQKPGKAPKFLIYAASSLQTGVPSRFSGSGSGTDFTLTISSLEPEDFATYYCQHSYSTPPITFGQGTRLEIK
notes: Human IgG1 (H1H: hIgG1)
B8: H1H8794P (antibody, V domains shown)
VH: QVQLVESGGGLVKPGGSLRLSCAASGFTFRDYSMSWIRQAPGKGLEWVSYVTFFNSAIYYADSVKGRFTISRDNAKNSLYLQMNSLRAEDTAVYYCAREREPIVGGFDYWGQGTLVTVSS
VL: B7 VL with I31S, F46L, T56G, S65G, S76T, E79Q, Y86F, H90Q, T94S
notes: Human IgG1
B9: H3M9524N (antibody, mouse IgG3, V domains shown)
VH: QVQLQQWGAGLLKPSETLSLTCAVYGGSFSDYYWSWIRQPPGKGLEWIGEINHRGKTNYNPSLKSRVSISVDPSKNQFSLKLSSVTAADTAVYYCARQGWNYAIFDYWGQGILVPVSS
VL: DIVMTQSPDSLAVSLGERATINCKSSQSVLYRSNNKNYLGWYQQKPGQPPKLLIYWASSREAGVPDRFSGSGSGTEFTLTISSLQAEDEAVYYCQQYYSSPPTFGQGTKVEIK
notes: Human variable regions, mouse IgG3 constant region
B10: H1H9524N (antibody, human IgG1, V domains shown)
VH: B9 VH
VL: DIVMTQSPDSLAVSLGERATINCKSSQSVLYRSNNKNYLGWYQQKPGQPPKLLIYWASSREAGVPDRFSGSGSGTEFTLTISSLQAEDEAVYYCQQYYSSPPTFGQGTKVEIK
notes: Human IgG1 form of H3M9524N
B11: H3M9525N (antibody, mouse IgG3, V domains shown)
VH: B9 VH with D31G, R54S, N58T, N60S, S68T, P73T, N76S, W100L, I112T, P115T
VL: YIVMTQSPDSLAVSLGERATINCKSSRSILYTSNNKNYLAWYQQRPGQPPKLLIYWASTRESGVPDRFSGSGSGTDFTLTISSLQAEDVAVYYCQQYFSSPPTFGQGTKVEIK
notes: as for B9
B12: H1H9525N (antibody, human IgG1, V domains shown)
VH: B9 VH with D31G, R54S, N58T, N60S, S68T, P73T, N76S, W100L, I112T, P115T
VL: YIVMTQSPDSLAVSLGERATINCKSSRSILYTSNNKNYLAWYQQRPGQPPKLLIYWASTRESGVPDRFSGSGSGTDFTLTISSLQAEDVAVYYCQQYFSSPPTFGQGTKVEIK
notes: Human IgG1 form of H3M9525N
B13: H2M9538N (antibody, V domains shown)
VH: QVQLQESGPGLVKPSETLSLTCTVSGGSISSYYWSWIRQPPGKGLEWIGYIYYSGSTNYNPSLKSRVTISVDTSKNQFSLKLSSVTAADTAVYYCARKKLVFDYWGQGTLVTVSS
VL: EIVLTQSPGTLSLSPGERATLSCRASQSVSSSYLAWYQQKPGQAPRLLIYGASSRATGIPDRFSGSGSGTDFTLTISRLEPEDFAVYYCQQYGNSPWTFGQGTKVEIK
B14: H1M9528N (antibody, mouse IgG1, V domains shown)
VH: QMQLQESGPGLVKPSETLSLTCTVSGGSISSYYWNWIRQPPGKGLEWIGYIYYSGNNFNPSLKSRVTISVDTSKNQFSLKLSSVTAADTAVYYCARAFHWNYEFDYWGQGTLVTVSS
VL: EIVLTQSPGTLSLSPGERATLSCRASQSVSNNYLAWYQQKPGQAPRLLLYGASSRTTDIPDRFSGSGSGTDFTLTISRLEPEDFAVYYCQQYDNSPLTFGGGTKVEIR
notes: as for B6
B15: H1H9528N (antibody, human IgG1, V domains shown)
VH: B14 VH
VL: B14 VL
notes: Human IgG1 form of H1M9528N
B16: H3M9529N (antibody, mouse IgG3, V domains shown)
VH: QVQLQQWGAGLLKPSETLSLTCAVYGGSFSGFYWSWIRQPPGKGLEWIGEINHSGSAKYNPSLKNRVIISIDTSKNQFSLKLDSVTAADTAVYNCARQGWNFAIFDYWGQGTLVDVSS
VL: DIVMTQSPDSLAVSLGGRATINCKSSQSVLHSSYNKDHLAWYQQRPGQPPKLLIYWASTRESGVPDRFSGSGSGTDFTLTISSLQAEDVAVYYCQQYNILPPTFGQGTRVEIK
notes: as for B9
B17: H1H9529N (antibody, human IgG1, V domains shown)
VH: B16 VH
VL: B16 VL
notes: Human IgG1 form of H3M9529N

Each binder was assayed against T1, human MUC16 (mucin 16) (human) (assay: MSD ECL cell binding, RLU ratio OVCAR-3 vs SK-OV-3, 16.7 nM Ab).
T1 construct: Endogenously expressed on human tumour cell lines; also called hMUC16
Procedure: (§1) The ability of anti-MUC16 antibodies to bind specifically to endogenously expressing MUC16 on the human ovarian carcinoma cell line (OVCAR-3) was evaluated via an electrochemiluminescence based detection assay (Meso Scale Discovery (MSD), Rockville, Md.). […] Detached cells were then washed once in 1×PBS supplemented with Ca²⁺/Mg²⁺ and counted (Cellometer Auto T4 cell counter, Nexcelom Bioscience, Lawrence, Mass.). Approximately 1.0×10⁴ cells were plated in MULTI-ARRAY 96-well carbon electrode plates (MSD) and incubated for 1 h at 37° C. […] Next, serial dilutions of anti-MUC16 or control antibodies (0.85 pM-50 nM) and no-antibody buffer controls were added to the plate-bound cells and incubated for 1 h at room temperature (RT). Plates were then washed to remove the unbound antibodies using an AquaMax2000 plate washer (MDS Analytical Technologies, Sunnyvale, Calif.). Plate-bound antibodies were detected with a SULFO-TAG™-conjugated anti-human kappa light chain antibody (Regeneron) or a SULFO-TAG™-conjugated anti-mouse IgG antibody (Jackson Immunoresearch, West Grove, Pa.) for 1 h at RT. Post-wash, plates were developed with Read Buffer (MSD) according to manufacturer's protocol and luminescent signals were recorded with a SECTOR Imager 6000 (MSD) instrument.
(§2) Luminescence intensity, measured in relative light units (RLU), for the two cell lines was recorded to indicate the binding intensity of each antibody.

Binder	Ratio anti-MUC16 Binding OVCAR-3/SK-OV-3
B1	5 ratio
B2	3 ratio
B3	4 ratio
B4	50 ratio
B5	3 ratio
B6	29 ratio
B7	5 ratio
B8	3 ratio
B9	57 ratio
B10	48 ratio
B11	51 ratio
B12	21 ratio
B13	26 ratio
B14	120 ratio
B15	18 ratio
B16	99 ratio
B17	74 ratio

Each binder was assayed against T1, human MUC16 (mucin 16) (assay: MSD ECL cell binding, RLU ratio OVCAR-3 vs SK-OV-3, 1.9 nM Ab).
Procedure: as §1, §2

Binder	Ratio anti-MUC16 Binding OVCAR-3/SK-OV-3
B1	30 ratio
B2	9 ratio
B3	11 ratio
B4	82 ratio
B5	8 ratio
B6	77 ratio
B7	13 ratio
B8	8 ratio
B9	81 ratio
B10	20 ratio
B11	137 ratio
B12	4 ratio
B13	89 ratio
B14	153 ratio
B15	41 ratio
B16	143 ratio
B17	109 ratio
